Measurements published in article PMC7900914.

Biological target: HLA-B*57:01–T3N (human | not stated | HIV-1)
Test: SPR

KIR3DL1*001 (similar construct, from insect cells) (from UniProt P43629 22-444) (receptor)
Kd: 100 µM
